Measurements reported in patent US20120252730A1, “PLATELET AGGREGATION INHIBITORS” (UNIVERSITY OF CHICAGO, priority 2009, published 2012).
maleimide monolayer = not defined here

System: αIIbβ3 CHO K1 cells
Assay: Cell adhesion assay: αIIbβ3 CHO K1 cells on SAMs presenting immobilized peptides
Assay type: cell-based, human
Settings: 0.5% peptide SAM; in presence of 300 μM cRGDFG
Method: Monolayers were prepared as described (Houseman, et al., 2003). Glass coverslips were sonicated for 30 minutes in deionized ultrafiltered (DIUF) water and then 30 minutes in ethanol and then dried under a stream of nitrogen. Titanium (4 nm) and then gold (29 nm) were evaporated onto the coverslips using an electron beam evaporator (Boc Edwards) at a rate of 0.05-0.10 nm/s and at a pressure of 1 μTorr. The gold-coated coverslips were immersed in an ethanolic solution of maleimide-terminated disulfide (1%) and tri(ethylene glycol)-terminated disulfide (99%) overnight at room temperature. The total disulfide concentration was 1 mM. The substrates were washed with DIUF water, ethanol and then dried under a stream of nitrogen.
The pcDNA3.1 vectors that express human αIIb or β3, respectively, have been described previously (see e.g., Litvinov et al. (2006) Biochemistry, 45: 4957-4964). CHO K1, BHK 21 and HT1080 cells were purchased from ATCC. All CHO cells were cultured at 37° C. and 5% CO2 using F12K medium supplemented with 10% FBS and pen/strep. […] CHO K1 cells were transfected with αIIb and β3 cDNA with FuGENE following the supplier's protocol. Transfected cells were selected with 1 mg/mL zeocin and 1 mg/mL geneticin.
(§1) Cysteine-terminated peptides were immobilized onto maleimide-presenting SAMs by adding 40 μL of 1 mM peptide solution to the biochip and incubating at 37° C. for 1 hour. Substrates were rinsed with DIUF water and ethanol and dried under a stream of nitrogen. αIIbβ3 CHO K1 cells were detached from culture plates with 1 mM EGTA/2 mM EDTA in PBS (phosphate-buffered saline), rinsed with serum-free F-12K medium, centrifuged and resuspended in serum-free F-12K medium supplemented with cRGDFG (SEQ ID NO: 12) (300 μM) and 1× penicillin/streptomycin. After 15-minute of incubation, cells (200,000/mL) were added to substrates in 24-well culture plates. After 2 hour incubation at 37° C. and 5% CO2, media was exchanged for F-12K medium supplemented with 10% FBS, 1× penicillin/streptomycin and cRGDFG (SEQ ID NO: 12) (300 μM). After 2 hours, the substrates were washed gently with warm PBS, and adherent cells were immediately fixed with 4% formaldehyde for 30 minutes, visualized with a 20× objective of a Zeiss Axiovert 200 inverted microscope, and photographed. For cell adhesion assays mediated by Ac-GXGDSC (SEQ ID NO: 26), αIIbβ3 CHO K1 cells were incubated on a 5×4 circle (1 mm diameter) array for 1 hour with serum-free F-12K medium supplemented with cRGDFG (SEQ ID NO: 12) (300 μM) and 1× penicillin/streptomycin, followed by media exchange to F-12K medium supplemented with 10% FBS, 1× penicillin/streptomycin and cRGDFG (SEQ ID NO: 12) (300 μM. The substrates were washed with warm PBS, and adherent cells were immediately fixed and permeabilized with 4% formaldehyde and 0.5% Triton-X for 30 minutes. Fixed cells were stained with DAPI, visualized and photographed with a 20× objective as described. The number of adherent cells per field of view was counted using Image J software. Cells were counted in at least three fields for each circle, and each experiment was repeated 3 times. The degree of adhesion is reported as a percentage of cells that adhere relative to control experiments with the peptide Ac-GRGDSC (SEQ ID NO: 28).
Monolayers were prepared that presented a mixture of maleimide groups and tri(ethylene glycol) groups with the former present at a density of 0.5% (relative to total alkanethiolate). The monolayers were treated with cysteine-terminated peptides to immobilize the ligands (FIG. 1A). In each case mass spectrometry was used to verify immobilization of the peptides in high yield (Su et al., 2002).
The adhesion and spreading of αIIbβ3 CHO K1 cells to monolayers presenting GRGDSC (SEQ ID NO: 11), HHLGGAKQAGDVC (SEQ ID NO: 21) and a mixture of both peptides was compared. […]

Molecule | adhesion of αIIbβ3 CHO K1 cells to monolayer presenting the peptide
QAGDVC (completely synthesized peptide) | adhered
KQAGC (completely synthesized peptide) | failed to adhere
AGDVC (completely synthesized peptide) | adhered
KQAGDVC (completely synthesized peptide) | adhered and spread
GGAKQAC (completely synthesized peptide) | failed to adhere
GHHLGGADQAGKVC (scrambled peptide) | lack of cell attachment
GDVC (completely synthesized peptide) | failed to adhere
KQAGDC (completely synthesized peptide) | adhered
HHLGGAC (completely synthesized peptide) | failed to adhere

Target: T1, human αIIbβ3 integrin on transfected CHO K1 cells (human, UniProt P08514 32-1039; P05106 27-788)
T1 construct: whole, on cells; CHO K1 cells transfected with human αIIb and β3 cDNA; about 30% of the cells expressed the receptor; also called platelet receptor; platelet integrin
Assay: Ac-GXGDSC peptide array, adhesion of αIIbβ3 CHO K1 cells
Settings: not given
Method: as §1, with “After” for “Cysteine-terminated peptides were immobilized onto maleimide-presenting SAMs by adding 40 μL of 1 mM peptide solution to the biochip and incubating at 37° C. for 1 hour. Substrates were rinsed with DIUF water and ethanol and dried under a stream of nitrogen. αIIbβ3 CHO K1 cells were detached from culture plates with 1 mM EGTA/2 mM EDTA in PBS (phosphate-buffered saline), rinsed with serum-free F-12K medium, centrifuged and resuspended in serum-free F-12K medium supplemented with cRGDFG (SEQ ID NO: 12) (300 μM) and 1× penicillin/streptomycin. After”, “CO₂,” for “CO2,”
To further assay the binding of peptide ligands to the […] integrin for XGD peptide ligands, an array was used to assess the adhesion of cells to peptides having the arginine residue substituted with each amino acid other than cysteine (e.g., A, D, E, F, G, H, I, K, L, M, N, P, Q, R, S, T, V, W, and Y). The library of Ac-GXGDSC (SEQ ID NO: 26) peptides was synthesized and immobilized in an array with each peptide occupying a 1 mm diameter region of the monolayer (FIG. 61). A suspension of αIIbβ3 CHO K1 cells was applied to the entire array and cells were allowed to attach to regions presenting the various peptides. The substrates were then rinsed and stained with DAPI, and the cells were counted to determine the relative efficiency of cell attachment to peptides in the library.

Molecule | binding result
Ac-GAGDSC(maleimide monolayer)-NH2 (not fully specified; printed as Ac-GAGDSC; reading uncertain, also called 0.5% Ac-GAGDSC; Ac-GXGDSC with X = Ala) [Ac-GAGDSC (SEQ ID NO: 30), immobilized on a monolayer array] | binds
Ac-GKGDSC(maleimide monolayer)-NH2 (not fully specified; printed as Ac-GKGDSC; reading uncertain, also called 0.5% Ac-GKGDSC; Ac-GXGDSC with X = Lys) [Ac-GKGDSC (SEQ ID NO: 31), immobilized on a monolayer array] | binds
Ac-GFGDSC(maleimide monolayer)-NH2 (not fully specified; printed as Ac-GXGDSC; reading uncertain, Member of the Ac-GXGDSC library) [Ac-GXGDSC (SEQ ID NO: 26) with X = F, immobilized on a monolayer array] | no binding
Ac-GPGDSC(maleimide monolayer)-NH2 (not fully specified; printed as Ac-GXGDSC; reading uncertain, Member of the Ac-GXGDSC library) [Ac-GXGDSC (SEQ ID NO: 26) with X = P, immobilized on a monolayer array] | no binding
Ac-GRGDSC(maleimide monolayer)-NH2 (not fully specified; printed as Ac-GRGDSC; reading uncertain, also called 0.5% Ac-GRGDSC) [Ac-GRGDSC (SEQ ID NO: 28), immobilized on a monolayer array] | binds

Results, then the molecule that gave them:

binding result | Molecule
no binding | Ac-GDGDSC(maleimide monolayer)-NH2 (not fully specified; printed as Ac-GXGDSC; reading uncertain, Member of the Ac-GXGDSC library) [Ac-GXGDSC (SEQ ID NO: 26) with X = D, immobilized on a monolayer array]
binds | Ac-GVGDSC(maleimide monolayer)-NH2 (not fully specified; printed as Ac-GVGDSC; reading uncertain, also called 0.5% Ac-GVGDSC; Ac-GXGDSC with X = Val) [Ac-GVGDSC (SEQ ID NO: 32), immobilized on a monolayer array]
no binding | Ac-GYGDSC(maleimide monolayer)-NH2 (reading uncertain; also: printed as Ac-GXGDSC, Member of the Ac-GXGDSC library) [Ac-GXGDSC (SEQ ID NO: 26) with X = Y, immobilized on a monolayer array]
no binding | Ac-GTGDSC(maleimide monolayer)-NH2 (not fully specified; printed as Ac-GXGDSC; reading uncertain, Member of the Ac-GXGDSC library) [Ac-GXGDSC (SEQ ID NO: 26) with X = T, immobilized on a monolayer array]
no binding | Ac-GMGDSC(maleimide monolayer)-NH2 (not fully specified; printed as Ac-GXGDSC; reading uncertain, Member of the Ac-GXGDSC library) [Ac-GXGDSC (SEQ ID NO: 26) with X = M, immobilized on a monolayer array]
no binding | Ac-GQGDSC(maleimide monolayer)-NH2 (not fully specified; printed as Ac-GXGDSC; reading uncertain, Member of the Ac-GXGDSC library) [Ac-GXGDSC (SEQ ID NO: 26) with X = Q, immobilized on a monolayer array]
no binding | Ac-GSGDSC(maleimide monolayer)-NH2 (not fully specified; printed as Ac-GXGDSC; reading uncertain, Member of the Ac-GXGDSC library) [Ac-GXGDSC (SEQ ID NO: 26) with X = S, immobilized on a monolayer array]
binds | Ac-GGGDSC(maleimide monolayer)-NH2 (not fully specified; printed as Ac-GGGDSC; reading uncertain, also called 0.5% Ac-GGGDSC; Ac-GXGDSC with X = Gly) [Ac-GGGDSC (SEQ ID NO: 29), immobilized on a monolayer array]
no binding | Ac-GHGDSC(maleimide monolayer)-NH2 (not fully specified; printed as Ac-GXGDSC; reading uncertain, Member of the Ac-GXGDSC library) [Ac-GXGDSC (SEQ ID NO: 26) with X = H, immobilized on a monolayer array]
binds | Ac-GLGDSC(maleimide monolayer)-NH2 (not fully specified; printed as Ac-GLGDSC; reading uncertain, also called 0.5% Ac-GLGDSC; Ac-GXGDSC with X = Leu) [Ac-GLGDSC (SEQ ID NO: 34), immobilized on a monolayer array]
no binding | Ac-GWGDSC(maleimide monolayer)-NH2 (reading uncertain; also: printed as Ac-GXGDSC, Member of the Ac-GXGDSC library) [Ac-GXGDSC (SEQ ID NO: 26) with X = W, immobilized on a monolayer array]
binds | Ac-GIGDSC(maleimide monolayer)-NH2 (not fully specified; printed as Ac-GIGDSC; reading uncertain, also called 0.5% Ac-GIGDSC; Ac-GXGDSC with X = Ile) [Ac-GIGDSC (SEQ ID NO: 33), immobilized on a monolayer array]
